Assay [1] has as its target KRAS G12V peptide on HLA-A*11:01 (human). Put plainly: mean peptide concentration for 50% NFAT activation; J^ASP90 reporter cells 1:1 with HLA-SCD K562 pulsed with titrated peptide (10 μM–1 pM), 16–20 h; full-length, on cells.
Assay [2] concerns the target T1, KRAS G12R peptide on HLA-B*07:02 (human).
T1 peptide: GARGVGKSAL
The description is as above.

B1: TCRA11V (TCR)
alpha TRAV12-1 TRAJ8 CDR3: CAVNPPDTGFQKLVF
beta TRBV28 TRBJ2-7 CDR3: CASSLSFRQGLREQYF
B1 had an EC50 of peptide in assay [1] of 0.15 nM.

B2: TCRB7R (TCR)
alpha TRAV4 TRAJ41 CDR3: CLVGDFNSNSGYALNF
beta TRBV7-2 TRBJ1-2 CDR3: CASKVYGYTF
B2: in assay [2], the EC50 of peptide came out at 3.38 nM.

The values above are taken from publication PMC8285372 (2021).
